Reference: PMC3597821

T1: DmAgo2 (Drosophila melanogaster, UniProt Q9VUQ5 403-1214)
T1 sequence: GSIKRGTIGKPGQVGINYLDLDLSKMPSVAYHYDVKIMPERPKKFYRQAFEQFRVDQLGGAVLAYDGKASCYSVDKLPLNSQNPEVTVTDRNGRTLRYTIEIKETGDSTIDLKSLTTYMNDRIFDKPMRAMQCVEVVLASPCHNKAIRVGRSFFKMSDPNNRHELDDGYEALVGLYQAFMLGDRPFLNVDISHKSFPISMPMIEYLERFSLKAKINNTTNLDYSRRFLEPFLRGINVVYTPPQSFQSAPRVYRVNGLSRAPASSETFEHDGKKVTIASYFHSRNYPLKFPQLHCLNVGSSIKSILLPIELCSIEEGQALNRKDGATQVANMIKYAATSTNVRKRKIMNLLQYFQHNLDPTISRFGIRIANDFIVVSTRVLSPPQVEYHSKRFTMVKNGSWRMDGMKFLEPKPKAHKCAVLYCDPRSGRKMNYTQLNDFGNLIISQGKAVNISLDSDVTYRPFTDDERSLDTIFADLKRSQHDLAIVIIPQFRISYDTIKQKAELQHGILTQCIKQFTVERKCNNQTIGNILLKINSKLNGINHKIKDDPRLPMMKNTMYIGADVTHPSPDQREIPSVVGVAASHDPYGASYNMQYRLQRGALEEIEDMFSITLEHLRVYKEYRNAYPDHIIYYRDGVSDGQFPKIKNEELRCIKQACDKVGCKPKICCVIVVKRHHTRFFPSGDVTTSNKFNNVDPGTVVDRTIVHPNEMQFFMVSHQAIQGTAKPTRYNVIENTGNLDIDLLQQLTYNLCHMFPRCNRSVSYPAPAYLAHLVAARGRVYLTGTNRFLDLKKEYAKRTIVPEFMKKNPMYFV

B1: bantam miRNA 23 nt (ssRNA)
RNA: UGAGAUCAUUUUGAAAGCUGAUU
modifications: 5' phosphate on labeled RNA (PNK)
B2: bantam guide / 43-nt target (1-12 match) (dsRNA)
RNA 1: UGAGAUCAUUUUGAAAGCUGAUU
RNA 2: AGUUCUUAAGUUAGUCGAAACAAAAUGAUCUCACAUAGGCUUA
modifications: target printed as DNA letters, assayed as RNA

Legend:
DmAgo2 = target: T1, DmAgo2; assay: competitive double filter binding
DmAgo1 WT = DmAgo1 WT (Drosophila melanogaster, UniProt A1Z9J5 1-950); assay: filter binding

| Binder | Kd (DmAgo2) | binding result (DmAgo1 WT) |
| --- | --- | --- |
| B1 | 10.7 ± 1 nM |  |
| B2 |  | binds |
